In US20190233493A1 (Sanofi, published 2019):
*1 amine or outer side, *2 acyl side, *3 side chain or, on linkers, in order; H or OH if unused. Side-chain parts run from the residue outwards. [ ]: non-standard residue; d: D form. The star is where a group is joined. PEG12 = NCCOCCOCCOCCOCCOCCOCCOCCOCCOCCOCCOCCOCCC(=O)O; TtdDga = O=C(COCC(=O)[*:2])NCCCOCCOCCOCCCN[*:1]; γGlu = O=C(O)[C@H](CCC(=O)[*:2])N[*:1]; Stearoyl = CCCCCCCCCCCCCCCCCC(=O)*; Palmitoyl = CCCCCCCCCCCCCCCC(=O)*; Nle = CCCC[C@H](N)C(=O)O; Aib = CC(C)(N)C(=O)O

T1: RXFP1 receptor (UniProt Q9HBX9 1-757, limits assumed)
T1 sequence (looked up): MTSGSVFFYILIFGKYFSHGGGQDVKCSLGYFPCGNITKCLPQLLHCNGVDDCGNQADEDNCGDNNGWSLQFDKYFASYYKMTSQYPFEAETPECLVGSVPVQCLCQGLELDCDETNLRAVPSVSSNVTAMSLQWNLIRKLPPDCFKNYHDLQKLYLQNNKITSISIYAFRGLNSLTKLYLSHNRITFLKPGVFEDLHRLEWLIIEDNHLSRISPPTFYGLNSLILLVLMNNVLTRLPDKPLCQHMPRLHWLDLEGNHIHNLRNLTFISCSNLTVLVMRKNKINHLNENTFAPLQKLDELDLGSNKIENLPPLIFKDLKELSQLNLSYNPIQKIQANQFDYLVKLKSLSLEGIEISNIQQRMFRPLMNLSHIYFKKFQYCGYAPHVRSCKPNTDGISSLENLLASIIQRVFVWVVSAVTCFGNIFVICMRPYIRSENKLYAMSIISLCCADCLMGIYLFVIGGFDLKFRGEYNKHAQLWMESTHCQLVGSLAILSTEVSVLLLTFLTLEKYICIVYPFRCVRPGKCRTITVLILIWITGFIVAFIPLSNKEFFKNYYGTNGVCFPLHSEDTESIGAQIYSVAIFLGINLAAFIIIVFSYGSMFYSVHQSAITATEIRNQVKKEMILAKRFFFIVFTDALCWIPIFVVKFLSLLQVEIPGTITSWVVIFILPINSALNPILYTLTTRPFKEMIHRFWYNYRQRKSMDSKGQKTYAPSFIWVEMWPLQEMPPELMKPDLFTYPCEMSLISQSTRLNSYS

B1: peptide of SEQ ID NO: 20 (peptide)
peptide: Ac-LEGREKVRAK(Ac)I[Aib][Aib]EG[Nle]STWS[Aib]RKK(Ac)[TtdDga][TtdDga][TtdDga]K([γGlu-γGlu-γGlu-Stearoyl])-NH2
SMILES: CCCCCCCCCCCCCCCCCC(=O)N[C@@H](CCC(=O)N[C@@H](CCC(=O)N[C@@H](CCC(=O)NCCCC[C@H](NC(=O)COCC(=O)NCCCOCCOCCOCCCNC(=O)COCC(=O)NCCCOCCOCCOCCCNC(=O)COCC(=O)NCCCOCCOCCOCCCNC(=O)[C@H](CCCCNC(C)=O)NC(=O)[C@H](CCCCN)NC(=O)[C@H](CCCNC(=N)N)NC(=O)C(C)(C)NC(=O)[C@H](CO)NC(=O)[C@H](Cc1c[nH]c2ccccc12)NC(=O)[C@@H](NC(=O)[C@H](CO)NC(=O)[C@H](CCCC)NC(=O)CNC(=O)[C@H](CCC(=O)O)NC(=O)C(C)(C)NC(=O)C(C)(C)NC(=O)[C@@H](NC(=O)[C@H](CCCCNC(C)=O)NC(=O)[C@H](C)NC(=O)[C@H](CCCNC(=N)N)NC(=O)[C@@H](NC(=O)[C@H](CCCCN)NC(=O)[C@H](CCC(=O)O)NC(=O)[C@H](CCCNC(=N)N)NC(=O)CNC(=O)[C@H](CCC(=O)O)NC(=O)[C@H](CC(C)C)NC(C)=O)C(C)C)[C@@H](C)CC)[C@@H](C)O)C(N)=O)C(=O)O)C(=O)O)C(=O)O
B2: peptide of SEQ ID NO: 21 (peptide)
peptide: Ac-LEGREKVRAQI[Aib][Aib]EG[Nle]STWS[Aib]RKK(Ac)[PEG12]K(Stearoyl)-NH2
SMILES: CCCCCCCCCCCCCCCCCC(=O)NCCCC[C@H](NC(=O)CCOCCOCCOCCOCCOCCOCCOCCOCCOCCOCCOCCOCCNC(=O)[C@H](CCCCNC(C)=O)NC(=O)[C@H](CCCCN)NC(=O)[C@H](CCCNC(=N)N)NC(=O)C(C)(C)NC(=O)[C@H](CO)NC(=O)[C@H](Cc1c[nH]c2ccccc12)NC(=O)[C@@H](NC(=O)[C@H](CO)NC(=O)[C@H](CCCC)NC(=O)CNC(=O)[C@H](CCC(=O)O)NC(=O)C(C)(C)NC(=O)C(C)(C)NC(=O)[C@@H](NC(=O)[C@H](CCC(N)=O)NC(=O)[C@H](C)NC(=O)[C@H](CCCNC(=N)N)NC(=O)[C@@H](NC(=O)[C@H](CCCCN)NC(=O)[C@H](CCC(=O)O)NC(=O)[C@H](CCCNC(=N)N)NC(=O)CNC(=O)[C@H](CCC(=O)O)NC(=O)[C@H](CC(C)C)NC(C)=O)C(C)C)[C@@H](C)CC)[C@@H](C)O)C(N)=O
B3: peptide of SEQ ID NO: 22 (peptide)
peptide: Ac-LEGREKVRAQI[Aib][Aib]EG[Nle]STWS[Aib]RKK[PEG12]K([γGlu-Stearoyl])-NH2
SMILES: CCCCCCCCCCCCCCCCCC(=O)N[C@@H](CCC(=O)NCCCC[C@H](NC(=O)CCOCCOCCOCCOCCOCCOCCOCCOCCOCCOCCOCCOCCNC(=O)[C@H](CCCCN)NC(=O)[C@H](CCCCN)NC(=O)[C@H](CCCNC(=N)N)NC(=O)C(C)(C)NC(=O)[C@H](CO)NC(=O)[C@H](Cc1c[nH]c2ccccc12)NC(=O)[C@@H](NC(=O)[C@H](CO)NC(=O)[C@H](CCCC)NC(=O)CNC(=O)[C@H](CCC(=O)O)NC(=O)C(C)(C)NC(=O)C(C)(C)NC(=O)[C@@H](NC(=O)[C@H](CCC(N)=O)NC(=O)[C@H](C)NC(=O)[C@H](CCCNC(=N)N)NC(=O)[C@@H](NC(=O)[C@H](CCCCN)NC(=O)[C@H](CCC(=O)O)NC(=O)[C@H](CCCNC(=N)N)NC(=O)CNC(=O)[C@H](CCC(=O)O)NC(=O)[C@H](CC(C)C)NC(C)=O)C(C)C)[C@@H](C)CC)[C@@H](C)O)C(N)=O)C(=O)O
B4: peptide of SEQ ID NO: 23 (peptide)
peptide: Ac-LEGREKVRAQI[Aib][Aib]EGMSTWS[Aib]RK[PEG12]K([γGlu-γGlu-γGlu-Palmitoyl])-NH2
SMILES: CCCCCCCCCCCCCCCC(=O)N[C@@H](CCC(=O)N[C@@H](CCC(=O)N[C@@H](CCC(=O)NCCCC[C@H](NC(=O)CCOCCOCCOCCOCCOCCOCCOCCOCCOCCOCCOCCOCCNC(=O)[C@H](CCCCN)NC(=O)[C@H](CCCNC(=N)N)NC(=O)C(C)(C)NC(=O)[C@H](CO)NC(=O)[C@H](Cc1c[nH]c2ccccc12)NC(=O)[C@@H](NC(=O)[C@H](CO)NC(=O)[C@H](CCSC)NC(=O)CNC(=O)[C@H](CCC(=O)O)NC(=O)C(C)(C)NC(=O)C(C)(C)NC(=O)[C@@H](NC(=O)[C@H](CCC(N)=O)NC(=O)[C@H](C)NC(=O)[C@H](CCCNC(=N)N)NC(=O)[C@@H](NC(=O)[C@H](CCCCN)NC(=O)[C@H](CCC(=O)O)NC(=O)[C@H](CCCNC(=N)N)NC(=O)CNC(=O)[C@H](CCC(=O)O)NC(=O)[C@H](CC(C)C)NC(C)=O)C(C)C)[C@@H](C)CC)[C@@H](C)O)C(N)=O)C(=O)O)C(=O)O)C(=O)O
B5: peptide of SEQ ID NO: 24 (peptide)
peptide: Ac-LEGREKVRAQI[Aib][Aib]EG[Nle]STWS[Aib]RK[PEG12]K([γGlu-γGlu-γGlu-Palmitoyl])-NH2
SMILES: CCCCCCCCCCCCCCCC(=O)N[C@@H](CCC(=O)N[C@@H](CCC(=O)N[C@@H](CCC(=O)NCCCC[C@H](NC(=O)CCOCCOCCOCCOCCOCCOCCOCCOCCOCCOCCOCCOCCNC(=O)[C@H](CCCCN)NC(=O)[C@H](CCCNC(=N)N)NC(=O)C(C)(C)NC(=O)[C@H](CO)NC(=O)[C@H](Cc1c[nH]c2ccccc12)NC(=O)[C@@H](NC(=O)[C@H](CO)NC(=O)[C@H](CCCC)NC(=O)CNC(=O)[C@H](CCC(=O)O)NC(=O)C(C)(C)NC(=O)C(C)(C)NC(=O)[C@@H](NC(=O)[C@H](CCC(N)=O)NC(=O)[C@H](C)NC(=O)[C@H](CCCNC(=N)N)NC(=O)[C@@H](NC(=O)[C@H](CCCCN)NC(=O)[C@H](CCC(=O)O)NC(=O)[C@H](CCCNC(=N)N)NC(=O)CNC(=O)[C@H](CCC(=O)O)NC(=O)[C@H](CC(C)C)NC(C)=O)C(C)C)[C@@H](C)CC)[C@@H](C)O)C(N)=O)C(=O)O)C(=O)O)C(=O)O
B6: peptide of SEQ ID NO: 25 (peptide)
peptide: Ac-LEGREKVRAK(Ac)I[Aib][Aib]EGMSTWS[Aib]RK[PEG12]K([γGlu-γGlu-γGlu-Palmitoyl])-NH2
SMILES: CCCCCCCCCCCCCCCC(=O)N[C@@H](CCC(=O)N[C@@H](CCC(=O)N[C@@H](CCC(=O)NCCCC[C@H](NC(=O)CCOCCOCCOCCOCCOCCOCCOCCOCCOCCOCCOCCOCCNC(=O)[C@H](CCCCN)NC(=O)[C@H](CCCNC(=N)N)NC(=O)C(C)(C)NC(=O)[C@H](CO)NC(=O)[C@H](Cc1c[nH]c2ccccc12)NC(=O)[C@@H](NC(=O)[C@H](CO)NC(=O)[C@H](CCSC)NC(=O)CNC(=O)[C@H](CCC(=O)O)NC(=O)C(C)(C)NC(=O)C(C)(C)NC(=O)[C@@H](NC(=O)[C@H](CCCCNC(C)=O)NC(=O)[C@H](C)NC(=O)[C@H](CCCNC(=N)N)NC(=O)[C@@H](NC(=O)[C@H](CCCCN)NC(=O)[C@H](CCC(=O)O)NC(=O)[C@H](CCCNC(=N)N)NC(=O)CNC(=O)[C@H](CCC(=O)O)NC(=O)[C@H](CC(C)C)NC(C)=O)C(C)C)[C@@H](C)CC)[C@@H](C)O)C(N)=O)C(=O)O)C(=O)O)C(=O)O
B7: peptide of SEQ ID NO: 3 (peptide)
peptide: Ac-LEGREKVRAQI[Aib][Aib]EG[Nle]STWS[Aib]RKK([γGlu-Stearoyl])-NH2
SMILES: CCCCCCCCCCCCCCCCCC(=O)N[C@@H](CCC(=O)NCCCC[C@H](NC(=O)[C@H](CCCCN)NC(=O)[C@H](CCCNC(=N)N)NC(=O)C(C)(C)NC(=O)[C@H](CO)NC(=O)[C@H](Cc1c[nH]c2ccccc12)NC(=O)[C@@H](NC(=O)[C@H](CO)NC(=O)[C@H](CCCC)NC(=O)CNC(=O)[C@H](CCC(=O)O)NC(=O)C(C)(C)NC(=O)C(C)(C)NC(=O)[C@@H](NC(=O)[C@H](CCC(N)=O)NC(=O)[C@H](C)NC(=O)[C@H](CCCNC(=N)N)NC(=O)[C@@H](NC(=O)[C@H](CCCCN)NC(=O)[C@H](CCC(=O)O)NC(=O)[C@H](CCCNC(=N)N)NC(=O)CNC(=O)[C@H](CCC(=O)O)NC(=O)[C@H](CC(C)C)NC(C)=O)C(C)C)[C@@H](C)CC)[C@@H](C)O)C(N)=O)C(=O)O
B8: peptide of SEQ ID NO: 26 (peptide)
peptide: Ac-LEGREKVRAK(Ac)I[Aib][Aib]EG[Nle]STWS[Aib]RKK(Ac)[PEG12]K([γGlu-γGlu-γGlu-Palmitoyl])-NH2
SMILES: CCCCCCCCCCCCCCCC(=O)N[C@@H](CCC(=O)N[C@@H](CCC(=O)N[C@@H](CCC(=O)NCCCC[C@H](NC(=O)CCOCCOCCOCCOCCOCCOCCOCCOCCOCCOCCOCCOCCNC(=O)[C@H](CCCCNC(C)=O)NC(=O)[C@H](CCCCN)NC(=O)[C@H](CCCNC(=N)N)NC(=O)C(C)(C)NC(=O)[C@H](CO)NC(=O)[C@H](Cc1c[nH]c2ccccc12)NC(=O)[C@@H](NC(=O)[C@H](CO)NC(=O)[C@H](CCCC)NC(=O)CNC(=O)[C@H](CCC(=O)O)NC(=O)C(C)(C)NC(=O)C(C)(C)NC(=O)[C@@H](NC(=O)[C@H](CCCCNC(C)=O)NC(=O)[C@H](C)NC(=O)[C@H](CCCNC(=N)N)NC(=O)[C@@H](NC(=O)[C@H](CCCCN)NC(=O)[C@H](CCC(=O)O)NC(=O)[C@H](CCCNC(=N)N)NC(=O)CNC(=O)[C@H](CCC(=O)O)NC(=O)[C@H](CC(C)C)NC(C)=O)C(C)C)[C@@H](C)CC)[C@@H](C)O)C(N)=O)C(=O)O)C(=O)O)C(=O)O

Target: T1, RXFP1 receptor
Test: cell-based or functional assay

| Binder | EC50 (nM), OVCAR 5 cells (cAMP) [nM] | EMax, OVCAR 5 cells (cAMP) [%] |
| --- | --- | --- |
| B1 | 0.45 | 88 |
| B2 | 38.6 | 88 |
| B3 | 21.4 | 104 |
| B4 | 3.62 | 89 |
| B5 | 3.2 | 74 |
| B6 | 1.21 | 95 |
| B7 | 28.5 | 93 |
| B8 | 0.57 | 85 |
